According to paper PMC3282769, “New Insight into the Transcarbamylase Family: The Structure of Putrescine Transcarbamylase, a Key Catalyst for Fermentative Utilization of Agmatine” (PLoS ONE, 2012):

Target: the molecule itself
Experiment: SEC; analytical size exclusion chromatography, Superdex 200HR 5/150 GL, 20 µl of 10 mg/ml protein injected, 24°C, 50 mM Hepes pH 7.5, 0.25 M NaCl; column calibrated with protein standards

Row | Protein | stoichiometry N
1 | putrescine transcarbamylase (PTC) from Enterococcus faecalis, wild type (enzyme, putrescine transcarbamylase, Enterococcus faecalis, gene ef0732, UniProt Q837U7; the final PTC-PAPU model has residues 1 to 340 in each chain; also called wild-type PTC; WT) not shown | 3
2 | Enterococcus faecalis PTC lacking the C-terminal helix (helix 13), amino acids 1-317 (domain or fragment, putrescine transcarbamylase, Enterococcus faecalis SD10 genomic DNA, gene ef0732, amino acids 1-317 followed by a stop codon (stop codon at position 318); Cloned in pNIC28-Bsa4; Most of the protein eluted as hexamers, a small fraction as monomers; also called truncated PTC; Trun; source: E. coli BL21 (DE3) co-transformed with pGroESL, purified (Ni-based chromatography)) not shown | 6
